The values that follow come from patent US11180762B2, “Methods and compositions for the treatment of cancer” (CHILDREN'S MEDICAL CENTER CORPORATION, priority 2014, dated 2021).

“Also recorded” adds a separate entry of the source.

Series [1] relates to breast cancer cell lines. Kind of series: Sphere (mammosphere) formation assay. The format is cell-based, human. Here is the method:
(§1) For colony formation assay, 1,000 viable cells were treated for 6 h in round bottom 96-well plates and then transferred to 10-cm plates in serum-containing medium. Medium was replaced every 3 d. After 8-14 d, cells were fixed in methanol (−20 C) and stained with crystal violet. For sphere formation assay, 1,000/ml viable cells were treated for 6 h in round bottom 96-well plates and then cultured in suspension in serum-free DMEM/F12 1:1 (Invitrogen), supplemented with EGF (20 ng/ml, BD Biosciences), B27 (1:50, Invitrogen), 0.4% bovine serum albumin (Sigma) and 4 μg/ml insulin (Sigma). Spheres were counted after 1 or 2 weeks.

In series [2] the test system is breast cancer cell lines. Kind of series: Colony formation assay. The class given is cell-based, human. As to conditions: AsiC 4 uM, paclitaxel 100 nM. The procedure: as §1
The test system of series [3] is basal-A TNBCs. Kind of series: Bortezomib on TNBC cell lines in vitro. The class given is cell-based, human.
Series [4] relates to basal-A TNBC tumors. Conditions: mouse, in vivo. An excerpt:
We next tested whether proteasome inhibition inhibited the growth of basal-like TNBC tumors in mice.

Series [5] has as its system MB468-luc tumors. Kind of series: Tumor inhibition, EpCAM+ MB468-luc xenograft. Conditions: 5 mg/kg sc every 3 d (72 h) for 2 wks. The format is in vivo, nude mice. Here is the method: (§2) For tumor inhibition studies, MB468-luc (5×10^6) and MB231-luc-mCherry (5×10^5) cells trypsinized with Tryple Express (Invitrogen), resuspended in a 1:1 WIT-Matrigel solution and injected subcutaneously in the flank of 8-week old female Nu/J mice (Stock #002019, Jackson Laboratories). Tumors size was analyzed daily using the IVIS Spectra, after 5 days tumors were clearly visible. […] Mice were treated every 72 h for 14 days.

For series [6], the system named is basal-A, luminal and basal-B breast cancer cell lines. Kind of series: Cell proliferation/viability by CellTiter-Glo in 10 breast cancer cell lines. The format is cell-based, human. The source says: To explore whether EpCAM-AsiCs could be used as anti-tumor agents in breast cancer, we examined by CellTiterGlo assay the effect of AsiCs directed against PLK1, a kinase required for mitosis, on survival of 10 breast cancer cell lines that included 5 basal-A TNBCs, 2 luminal cell lines, and 3 basal-B TNBCs. […] The anti-proliferative effect strongly correlated with EpCAM expression (FIG. 2B). The reduction in viable EpCAM+ cells after knockdown was due to induction of apoptosis, assessed by annexin V-propidium iodide staining and caspase activation (data not shown). To determine whether ligation of the EpCAM aptamer contributed to the anti-proliferative effect of the EpCAM-AsiC, we compared survival of cells that were treated with the PLK1 EpCAM-AsiC with cells treated with the aptamer on its own (FIG. 2C). […] Thus the PLK1 EpCAM-AsiC asserts its specific anti-tumor effect on EpCAM+ breast cancer cells by gene knockdown.
(§3) For uptake and silencing treatment, cells were plated at low density (10,000 cells/well in 96-well plates) and treated immediately. All AsiC and siRNA treatments were performed in either OptiMEM or WIT medium. Cell viability was assessed by CellTiter-Glo (Promega) or by Trypan-Blue staining in 96-well plates.

In series [7] the test system is Argonaute (AGO). Kind of series: PLK1 siRNA association with Argonaute (pan-AGO immunoprecipitation, qRT-PCR). The class given is cell-based, human. As to conditions: MDA-MB-468 cells treated 2 days. The source says: MB-468 cells, treated with PLK1 EPCAM-AsiC or siRNA for 2 days, were lysed, and cell lysates were immunoprecipitated with pan-AGO antibody or IgG isotype control. The amount of PLK1 siRNA in the immunoprecipitates was quantified by Taqman qRT-PCR, presented as log2 mean with SEM, relative to miR-16. **, P<0.01 by Student's t-test relative to siRNA-treated cells. ND, not detectable. […] This is likely because most RNAs that are taken up by cells are not released from endosomes to the cytosol (A. Wittrup et al., Visualizing lipid-formulated siRNA release from endosomes and target gene knockdown. Nature Biotechnology 2015, in press).
Uptake was clearly detected at 22 hr, but increased greatly after 43 hr. To test whether EpCAM-AsiCs are specifically taken up by EpCAM bright cell lines, the 3′ end of the antisense strand of the AsiC was fluorescently labeled. […] Previous studies have shown that AsiCs are processed within cells by Dicer to release the siRNA from the aptamer (10, 12, 15).

Series [8] has as its system AKT1. Kind of series: AKT1 mRNA and protein knockdown in breast cancer cell lines. The format is cell-based, human. Details: AKT1 protein silencing by flow cytometry: dose or concentration left out as unconfirmed. Conditions: for AKT1 mRNA and protein knockdown across cell lines: basal-A, luminal, basal-B lines, fibroblasts. The procedure:
as §3
For flow cytometry, cells were stained as previously described (Yu, F. et al (2007). let-7 Regulates Self Renewal and Tumorigenicity of Breast Cancer Cells. Cell 131, 1109-1123. ), briefly, direct immunostaining of EpCAM and AKT1 was performed using 1:50 dilutions of hAb for 30-60 minutes at 4° C. (BioLegend/BD). Cells were stained in PBS containing 0.5% FCS, 1 mM EDTA, and 25 mM HEPES. Samples were washed twice in the same buffer. Data was acquired using FACS-Canto II (BD Biosciences). Analyses were performed in triplicate and 10,000 gated events/sample were counted. All data analysis was performed using FlowJo (Treestar Inc.).
qRT-PCR analysis was performed as described (Petrocca, F., et al. (2008). E2F1-regulated microRNAs impair TGFbeta-dependent cell-cycle arrest and apoptosis in gastric cancer. Cancer Cell 13, 272-286). Briefly, total RNA was extracted with Trizol (Invitrogen) and cDNA prepared from 1000 ng total RNA using Thermoscript RT kit (Invitrogen) as per the […] (Applied Biosystems) and a BioRad C1000 Thermal Cycler (Biorad). Relative CT values were normalized to GAPDH and converted to a linear scale.

Series [9] concerns MB231-luc-mCherry tumors. Kind of series: Tumor inhibition, EpCAM− MB231-luc-mCherry xenograft. The class given is in vivo, nude mice. Conditions: 5 mg/kg sc every 3 d (72 h) for 2 wks. Here is the method: as §2
Series [10] deals with MB468-luc cells. Kind of series: Tumor initiation by ex vivo treated EpCAM+ cells in nude mice. As to conditions: cells treated ex vivo 24 h/overnight, then implanted; imaged 20 days; listed as EpCAM-AsiC targeting GFP. Here is the method: For tumor initiation studies 8-week old female Nu/J mice (Stock #002019, Jackson Laboratories) were injected subcutaneously with MB468-luc (5×10^6) cells pretreated for 24 h with EpCAM-AsiC-GFP, EpCAM-AsiC-PLK1 or untreated. Cells were trypsinized with Tryple Express (Invitrogen), resuspended in WIT media and injected subcutaneously in the flank. Following intraperitoneal injection of 150 mg/kg D-luciferin (Caliper Life Sciences) luminescent images of the whole body were taken every 5 days for a total of 20 days using the IVIS Spectra system (Caliper Life Sciences).

For series [11], the system named is eGFP expression in BPLER and BPE cells. Kind of series: eGFP knockdown in GFP-expressing BPLER and BPE cells. The class given is cell-based, human. As to conditions: AsiC 4 μM without lipid, siRNA 100 nM with Dharmafect, 72 hours. The procedure: FIG. 21A depicts the design of EpCAM-AsiC, containing an EpCAM aptamer and a PLK1 siRNA (sense strand disclosed as SEQ ID NO: 1 and antisense strand disclosed as SEQ ID NO: 2). […] EpCAM-AsiC targeting GFP was Alexa647 or Cy3 labeled at the 3′ end of the antisense siRNA strand and incubated with BPLER and BPE cells. Uptake was assessed 24 hours later by flow cytometry (FIG. 21C). Data are representative of 3 independent experiments. Cy3 and Alexa647-labeled EpCAM-AsiC was taken up by MB468 and BPLER (EpCAM+ cells) respectively and not by BPE (EpCAM−). MFI of each peak is shown (mock, gray). FIG. 21D depicts graphs of experiments in which, to test for gene silencing, BPLER and BPE were treated with EpCAM-AsiC targeting GFP (4 μM) and compared to Transfection controls using Dharmafect and GFP-siRNA (100 nM). Knockdown was assessed by flow cytometry 72 hours after incubation. Controls were mock and Dhrmafect only treatment (lipid). (n=4).
as §3
Cells were transfected with Dharmafect I per the manufacturer's protocol. See FIG. 9 for all siRNA sequences.

On to `CC(=O)O[C@H]1C(=O)[C@@]2(C)[C@H]([C@H](OC(=O)c3ccccc3)[C@]3(O)C[C@H](OC(=O)[C@H](O)[C@@H](NC(=O)c4ccccc4)c4ccccc4)C(C)=C1C3(C)C)[C@]1(OC(C)=O)CO[C@@H]1C[C@@H]2O` [paclitaxel, reference compound], for which the “sphere/mammosphere formation, cell lines tested” value in [1] is “reduced sphere-formation in all”. In addition, in series [2], the “colony formation, EpCAM+ basal-A and luminal lines” value is on record as “resistant clones emerged”; the “colony formation, EpCAM− basal-B lines” value is given as “reducing colony formation but still resistant clones invariably emerged”; the “colony formation, cell lines tested” value is given as “decreased colony formation in all cells lines”.

In the case of `CC(C)C[C@H](NC(=O)[C@H](Cc1ccccc1)NC(=O)c1cnccn1)B(O)O` [bortezomib], in series [3], the “killing and T-IC function (colony, mammosphere)” value was “both killed basal-A TNBCs and also blocked T-IC function”. Also, the “viable cells after treatment” value in series [3] (24 hr) was ~40%. For the same molecule, in [4], the “penetration into solid tumors” value is “does not penetrate well into solid tumors”.

Consider “PLK1 siRNA: PLK1 siRNA, sense SEQ ID NO: 31, antisense SEQ ID NO: 32 (sense UGAAGAAGAUCACCCUCCUUA; antisense UAAGGAGGGUGAUCUUCUUCA; listed as RNA, chemistry not given here) [reference compound]”, for which, in [5], the “growth of EpCAM+ MB468 tumors” value is listed as “continued to grow without significant change; also recorded: neither of which had any anti-tumor activity”. Moreover, the “cell proliferation/viability, all cell lines tested” value in series [6] was “suppressed the growth of all the cell lines”. Also, in [7], the “PLK1 siRNA bound to Ago / in the RISC” value is “No PLK1 siRNA bound to Ago”.

As for “AKT1 siRNA: AKT1 siRNA, sense SEQ ID NO: 29, antisense SEQ ID NO: 30 (sense GCUGGAGAACCUCAUGCUG; antisense CAGCAUGAGGUUCUCCAGC; listed as RNA, chemistry not given here) [reference compound]”, the “AKT1 mRNA and protein knockdown across cell lines” value in series [8] is given as “comparably knocked down expression in all the cell lines studied”.

B1: GFP EpCAM-AsiC: EpCAM aptamer-GFP siRNA chimera, sense SEQ ID NO: 25, antisense SEQ ID NO: 26 (nucleic acid)
sense: GCGACUGGUUACCCGGUCGUUUGGCUACGUCCAGGAGCGCATT
antisense: UGCGCUCCUGGACGUAGCCTT
modifications: DNA at T, 2'-fluoro at CU, RNA at AG, backbone not given here; EpCAM aptamer fused to sense strand
As to B1, the “growth of EpCAM+ MB468 tumors” value in [5] (listed as GFP AsiC) was “did not increase in size as much as control untreated mice”; in series [5] (listed as eGFP-targeting AsiCs), “continued to grow”. Besides, the “growth of EpCAM− MB231 tumors” value was “suppress tumor growth in both EpCAM+ and EpCAM-tumors but didn't eliminate tumors” in series [9] (listed as EpCAM-Asic targeting GFP); “continued to grow” in [9] (listed as eGFP-targeting AsiCs). Moreover, the “AKT1 mRNA and protein knockdown across cell lines” value in series [8] (listed as AsiCs targeting eGFP) is listed as “had no effect on AKT1 levels”; in series [8] (listed as EpCAM-AsiC targeting GFP), “did not effect any of the cell lines”. In series [1], the “sphere/mammosphere formation, cell lines tested” value is “had no effect”. The “tumor initiation, EpCAM+ cells” value in series [10] was “displayed tumors after 5 days; also recorded: displayed increase in tumor initiation”. Besides, the “colony formation, cell lines tested” value in [2] is “had no effect”. Besides, the “eGFP knockdown, BPLER vs BPE” value was “selectively knocked down expression in BPLER” in [11] (listed as EpCAM-AsiCs targeting GFP) and “selectively knocked down expression only in BPLER” in [11] (listed as eGFP EpCAM-AsiCs).

B2: AKT1 EpCAM-AsiC: EpCAM aptamer-AKT1 siRNA chimera, sense SEQ ID NO: 23, antisense SEQ ID NO: 24 (nucleic acid)
sense: GCGACUGGUUACCCGGUCGUUGCUGGAGAACCUCAUGCUGTT
antisense: CAGCAUGAGGUUCUCCAGCTT
modifications: chemistry not fully specified
For the molecule B2, the “AKT1 protein silencing by flow cytometry” value in series [8] (EpCAM-AsiC for 5 days) is on record as “specific AKT1 protein silencing”. Besides, the “AKT1 mRNA and protein knockdown across cell lines” value in [8] (listed as EpCAM-AsiC targeting AKT1) is “decreased AKT1 mRNA and protein levels”; in [8] (listed as EpCAM-AsiCs targeting AKT1), “only in EpCAM^bright luminal and basal-A TNBCs”.
